Results published in patent publication US12371675B2, “Process and microorganism for synthesis of adipic acid from carboxylic acids” (THE GOVERNING COUNCIL OF THE UNIVERSITY OF TORONTO, priority 2015, dated 2025).

What was measured:
[1] = substrate: O=C(O)/C=C/c1ccccc1; experiment: Kinetics of purified EREDCA, NADH oxidation at 340 nm, anaerobic; assay type: biochemical, Clostridium acetobutylicum DSM 1731; details: other: trans-cinnamic acid, pH 7.0, 30° C., anaerobic
Description: (§1) The C═C reducing activity of EREDs was examined. Enzyme activity of purified EREDs was measured spectrophotometrically in 96-well plates by following incubation for 3-5 min at 30° C. in the anaerobic chamber as described in M. Buhler, H. Simon, Hoppe-Seyler's Zeitschrift fur Physiologische Chemie 1982, 363, 609-625. Buffers and reagents were degassed and sparged with Ar. Reaction mixture contained potassium phosphate (100 mM and pH 7.0), NADH (0.5 mM), indicated substrates, and proteins (0.1-50 μg) in a final volume of 200 μL. Enzyme reactions were monitored by following the decrease in absorbance at 340 nm (ε340 nm=6,220/M·cm) due to oxidation of NADH to NAD+.
(§2) For in vitro biochemical characterization, enzyme activities of purified EREDs were measured with 2-hexenedioic acid, cis-cis-muconic acid, trans-trans muconic acid, trans-cinnamic acid, trans-2-methyl-2-butenoic acid, trans-2-butenoic acid, acrolein, 2-cyclohexen-1-one, and 3-methyl-2-cyclohexenone. […] [Feng, J. et al. Discovery and Characterization of BlsE, a Radical S-Adenosyl-L-methionine Decarboxylase Involved in the Blasticidin S Biosynthetic Pathway. PLoS ONE 8 (2013)].
(§3) To increase the dissolved substrate concentration, 2-hexenedioic acid was dissolved in a reaction mixture containing […] (final concentration) isopropanol, and kinetic constants of EREDBC and EREDCA were determined.

[2] = substrate: O=C(O)C=CCCC(=O)O; experiment: as above; assay type: biochemical, Clostridium acetobutylicum DSM 1731; details: other: 2-hexenedioic acid in 0.25 mM isopropanol, 2.5 to 35 mM, sigmoidal kinetics, pH 7.0, 30.0 °C
Description: as §1, §2, §3

B1: Clostridium acetobutylicum DSM 1731 2-enoate reductase EREDCA, SEQ ID NO: 2 (Clostridium acetobutylicum ATCC 824) (protein)
chain: MNKYKKLFEPIKIGKCEIKNRFALAPMGPLGLADSEGGFNQRGIDYYTERAKGGTGLIITGVTFVDNEVEEHGMPNCPCPTHNPVQFVRTGREMTERIHAYNSKVFLQMSGGFGRVTIPTNLGEFPPVAPSPIQHRWLDKTCRELTVDEIKSIVKKFGEGAFNAKRAGFDGVQIHAVHEGYLIDQFAISLFNHRTDEYGGSLENRLRFAREIVEEIKNRCGEDFPVTLRYSPKSFIKDLRDGALPGEEFVEKGRDLDEGVEAAKLLVSYGYDALDTDVGSYDSWWWSHPPMYQEKGLYRKYAKLMKDTVDVPVICAGRMDDPDMALEAVENGTCDVISLGRPLLADPDYVNKLRSNKCKSIRPCISCQEGCMGRVQHYSMLNCAVNPQACKERANSLTPIIKSKKVLIVGGGVAGCEAARVLALRGHEPVLYEKSNRLGGNLIPGGAPSFKEDDIALADWYTNTLKELNVEVNLNSEVTKEQILNSKFDTVIVATGSTPKVFPLGDDEKVFTAAEVLLGQKDPGETTVVVGGGLVGCELALDLAKKGKKVTIVEALNKILALNGPLCSANSEMLQKLIPFNGIDVKANSKVKGYKNGLLKMETENGIEELPCDSVILSVGYKEENSLYKELEFEIPEIYLLGDARKVSNIMYGIWDAFEVANHI
With B1 as the protein, how does the Km [1] read?
The Km was 0.17 mM.

What about the kcat [1] of the same protein?
Its kcat is 5.2 s⁻¹.

And the Km [2]?
The Km was 20.47 mM.
